Experimental data published in paper PMC6982183.

Target: human Hsp60 G190W mutant (human) (UniProt P10809)
Experiment: SEC; Superdex 200 Increase 10/300 GL, 50 mM Tris-HCl (pH 7.8 at 25 °C), 2 mM DTT, 2 mM EDTA, 0.5 mg sample, 0.75 mL/min; size from calibration with molecular weight standards; before and after agitation

For “human Hsp60 G190W mutant (from UniProt P10809 53-573) (natural protein)”, the stoichiometry N was 14.
